To fix the notation:
B1: LAb19310 (antibody, V domains shown)
VH: EVQLQQSGPELVKPGPSLKISCKASGYSFTVSPMTWVKQSHGKNLEWIGLIHPYNGDTTYNQKFKGKATLTVDKSSSTAYMELLSLTSEDSAVYYCARWGNYYPYAMDYWGQGTSVTVSS
VL: DIVMTQSQKFMSTSVGDRVSITCKASQNVRSTVAWYQQKPGQSPKALIYLTSNRHTGVPDRFTGSGSGTDFTLTISNVQSEDLADYFCLQHWNYPYTFGGGTKLEIK
notes: Mouse monoclonal antibody purified from hybridoma supernatant
B2: LAb19307 (antibody, V domains shown)
VH: EVQLVESGGDLVKPGGSLKLSCAASGFAFGTYDMSWVRQTPEKRLEWVAYISSGGNSPYYPQTVKGRFTISRDNAKNTLYLQMSSLKSEDTAMYYCARQNIARRGAMDFWGQGASVTVSS
VL: DVVLTQSPLSQPVSLGDQASISCTSSQSLLHSNGNTYLHWYLQKPGQSPKLLIYKVSNRFSGVPDRFSGSGSGTDFTLKISRVEAEDLGVYFCSQSTHVPPTFGGGTKLEIK
notes: as for B1
B3: LAb19309 (antibody, V domains shown)
VH: QVQLQQSGAELVRPGASVTLSCKASGYTFTDYEMHWVKQTPVHGLEWIGGIDPETGNTAYSQKFKGKATLTADKSSSTAYMEVRSLTSEDSAVYYCTRYYSFAYWGQGTLVTVSA
VL: DVLMTQTPLSLPVNLGDQASISCRSSQTIVHSNGNTYLEWYLQKPGQSPKLLIYKVSNRFSGVPDRFSGSGSGTDFTLRISRVEAEDLGVYYCFQVSHVPYTFGGGTKLEIK
notes: as for B1

For one assay, the target named is T1, mouse GPC3 on SK-HEP-1-muGPC3 cells (mouse, UniProt Q8CFZ4 25-553).
T1 construct: whole, on cells
T1 sequence (Q8CFZ4 25-553 limits assumed): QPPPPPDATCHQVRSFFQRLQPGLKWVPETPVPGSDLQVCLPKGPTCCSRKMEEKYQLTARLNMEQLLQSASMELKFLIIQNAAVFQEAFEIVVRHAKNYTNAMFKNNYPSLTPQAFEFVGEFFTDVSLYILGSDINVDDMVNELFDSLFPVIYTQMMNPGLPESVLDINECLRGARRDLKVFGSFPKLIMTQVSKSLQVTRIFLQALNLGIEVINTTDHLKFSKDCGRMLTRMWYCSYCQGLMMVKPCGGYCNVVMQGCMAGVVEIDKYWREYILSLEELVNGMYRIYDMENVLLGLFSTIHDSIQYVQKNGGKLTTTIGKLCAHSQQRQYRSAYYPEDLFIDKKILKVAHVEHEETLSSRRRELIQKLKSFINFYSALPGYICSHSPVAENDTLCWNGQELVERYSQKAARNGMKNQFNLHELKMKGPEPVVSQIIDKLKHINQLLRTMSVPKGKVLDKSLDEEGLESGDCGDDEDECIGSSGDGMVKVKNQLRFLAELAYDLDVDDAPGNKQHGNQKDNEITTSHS
Briefly: flow cytometry on SK-HEP-1-muGPC3 cells, PE anti-mouse IgG Fc. Further: test concentration or dose not given here.
In the case of B1, the “Positive population, %” value came to 83.9%.

In the case of B2, the “Positive population, %” value is 83.3%.

For B3, the “Positive population, %” value is 1.02%.

A further assay deals with T2, human GPC3 on SK-HEP-1-huGPC3 cells (human, UniProt P51654 25-554).
T2 construct: whole, on cells
Briefly: flow cytometry on SK-HEP-1-huGPC3 cells, PE anti-mouse IgG Fc. Further: test concentration or dose not given here.
Consider B1, for which the “Positive population, %” value stood at 91.3%.

As to B2, the “Positive population, %” value is 92.9%.

Consider B3, for which the “Positive population, %” value came to 92.7%.

Another assay deals with T3, recombinant human GPC3 (human, UniProt P51654 25-559, limits assumed).
T3 construct: also called hGPC3
Briefly: SPR (Biacore), antibody as ligand, recombinant human GPC3 as analyte, 1:1 Langmuir model.
Protocol: The binding kinetics of the antibodies to recombinant human GPC3 were measured by the surface plasmon resonance (SPR) (e.g., Biacore). Binding rate (Kₐ) and dissociation rates (Kd) were calculated using a simple one-to-one Langmuir binding model (Biacore Evaluation Software). The equilibrium dissociation constant (KD) is calculated as the ratio Kd/Kₐ.
Regarding B1, the Kd is 12.6 nM, the koff worked out at 0.000465 s⁻¹ and the kon was found to be 36900 M⁻¹ s⁻¹.

In the case of B2, the Kd turned out to be 58.7 nM, the koff is 0.00178 s⁻¹ and the kon is 30200 M⁻¹ s⁻¹.

For the molecule B3, the Kd came out at 8.38 nM, the koff was 0.000195 s⁻¹ and the kon is 23300 M⁻¹ s⁻¹.

The next assay addresses T4, cynomolgus monkey GPC3 on SK-HEP-1-cmGPC3 cells (cynomolgus monkey, UniProt A0A2K5VK50 24-553).
T4 construct: whole, on cells
Briefly: flow cytometry on SK-HEP-1-cmGPC3 cells, PE anti-mouse IgG Fc. Further: test concentration or dose not given here.
With B1, the “Positive population, %” value came out at 22.3%.

For the molecule B2, the “Positive population, %” value is 11.6%.

As for B3, the “Positive population, %” value was found to be 91.9%.

The values above are taken from patent US20230088461A1 (NANJING LEGEND BIOTECH, published 2023).
